Laboratory results: patent US20130209454A1 (CALIFORNIA INSTITUTE OF TECHNOLOGY, published 2013)
Positions count from the first letter of the chain named. Where two headings read alike, the source gives them in different places.

Experiments:
Experiment in all cases: cell-based or functional assay
[1] = target: HIV-1 Env of strain CAP45.2.00.G3 (HIV-1)
[2] = target: HIV-1 Env of strain TRO.11 (HIV-1)
[3] = target: HIV-1 Env of strain QH0692.42 (HIV-1)
[4] = target: HIV-1 Env of strain AC10.0.29 (HIV-1)
[5] = target: HIV-1 Env of strain T257-31 (HIV-1)
[6] = target: HIV-1 Env of strain ZM214M.PL15 (HIV-1)
[7] = target: HIV-1 Env of strain SC422661.8 (HIV-1)
[8] = target: HIV-1 strain CAP45.2.00.G3 envelope (gp120) (HIV-1)
[9] = target: HIV-1 strain TRO.11 envelope (gp120) (HIV-1)
[10] = target: HIV-1 strain AC10.0.29 envelope (gp120) (HIV-1)
[11] = target: HIV-1 strain QH0692.42 envelope (gp120) (HIV-1)
[12] = target: HIV-1 strain T257-31 envelope (gp120) (HIV-1)
[13] = target: HIV-1 strain ZM214M.PL15 envelope (gp120) (HIV-1)
[14] = target: HIV-1 strain SC422661.8 envelope (gp120) (HIV-1)
[15] = target: HIV-1 strain CAP45.2.00.G3 envelope (gp120) (HIV-1); remark: listed apart in the source
[16] = target: HIV-1 strain CAP210.2.00.E8 envelope (gp120) (HIV-1)
[17] = target: HIV-1 strain Du172.17 envelope (gp120) (HIV-1)
[18] = target: HIV-1 strain TRO.11 envelope (gp120) (HIV-1); remark: listed apart in the source
[19] = target: HIV-1 strain AC10.0.29 envelope (gp120) (HIV-1); remark: listed apart in the source
[20] = target: HIV-1 strain SC422661.8 envelope (gp120) (HIV-1); remark: listed apart in the source

B1: NIH45-46 Δ99a-99d IgG (antibody, V domains shown)
VH: QVRLSQSGGQMKKPGESMRLSCRASGYEFLNCPINWIRLAPGRRPEWMGWLKPRGGAVNYARKFQGRVTMTRDVYSDTAFLELRSLTSDDTAVYFCTRGKYCTYNWDFEHWGRGAPVTVSS
VL: EIVLTQSPATLSLSPGETAIISCRTSQSGSLAWYQQRPGQAPRLVIYSGSTRAAGIPDRFSGSRWGADYNLSISNLESGDFGVYYCQQYEFFGQGTKVQVDI
[1]
  neutralization IC50: > 50 µg/mL
[2]
  neutralization IC50: > 50 µg/mL
[3]
  neutralization IC50: 3.7 µg/mL
[4]
  neutralization IC50: 13 µg/mL
[5]
  neutralization IC50: 7 µg/mL
[6]
  neutralization IC50: 2.2 µg/mL
[7]
  neutralization IC50: 1.4 µg/mL

B2: NIH45-46 heavy chain paired with the VRC01 light chain (IgG) (antibody, V domains shown)
VH: QVRLSQSGGQMKKPGESMRLSCRASGYEFLNCPINWIRLAPGRRPEWMGWLKPRGGAVNYARKFQGRVTMTRDVYSDTAFLELRSLTSDDTAVYFCTRGKYCTARDYYNWDFEHWGRGAPVTVSS
VL: B1 VL with A9G, S28Y, A67P, S72T
[8]
  neutralization IC50: 2.1 µg/mL
[9]
  neutralization IC50: 0.3 µg/mL
[10]
  neutralization IC50: 1 µg/mL
[11]
  neutralization IC50: 0.9 µg/mL
[12]
  neutralization IC50: 0.6 µg/mL
[13]
  neutralization IC50: 0.6 µg/mL
[14]
  neutralization IC50: 0.2 µg/mL

B3: 3BNC55 IgG (antibody, V domains shown)
VH: QVQLVQSGTAVKRPGASVRVSCQASGYTFTDYFIYWWRQAPGQGLEWLGWINPLTSQPSYPSRFQGRLTLTRDTFDEMLYMDLRGLRSDDTGIYFCARRHSDYCDFDIWGSGTQIIVSS
VL: DIQMTQSPSSLSASVGDKVTITCQTSAGYLNWYQQRRGRAPKLLMYDGSRLVTGVPSRFSGRRWGTQYNLTIGSLQPEDIATYYCQVYEFFGPGTRLDLKS
[15]
  neutralization IC50: > 50 µg/mL
[16]
  neutralization IC50: > 50 µg/mL
[17]
  neutralization IC50: 2 µg/mL
[18]
  neutralization IC50: 7.6 µg/mL
[19]
  neutralization IC50: > 50 µg/mL
[20]
  neutralization IC50: 0.3 µg/mL

B4: 12A12 IgG (antibody, V domains shown)
VH: SQHLVQSGTQVKKPGASVRISCQASGYSFTDYVLHWWRQAPGQGLEWMGWIKPVYGARNYARRFQGRINFDRDIYREIAFMDLSGLRSDDTALYFCARDGSGDDTSWHLDPWGQGTLVIVSA
VL: DIQMTQSPSSLSASVGDRVTITCQAGQGIGSSLQWYQQKPGKAPKLLVHGASNLHRGVPSRFSGSGFHTTFSLTISGLQRDDFATYFCAVLEFFGPGTKVEIKR
[15]
  neutralization IC50: 0.4 µg/mL
[16]
  neutralization IC50: > 50 µg/mL
[17]
  neutralization IC50: 0.2 µg/mL
[18]
  neutralization IC50: 0.3 µg/mL
[19]
  neutralization IC50: 0.6 µg/mL
[20]
  neutralization IC50: 0.2 µg/mL

B5: 3BNC60 IgG (antibody, V domains shown)
VH: QVHLSQSGAAVTKPGASVRVSCEASGYKISDHFIHWWRQAPGQGLQWVGWINPKTGQPNNPRQFQGRVSLTRQASWDFDTYSFYMDLKAVRSDDTAIYFCARQRSDFWDFDVWGSGTQVTVSS
VL: DIQMTQSPSSLSARVGDTVTITCQANGYLNWYQQRRGKAPKLLIYDGSKLERGVPARFSGRRWGQEYNLTINNLQPEDVATYFCQVYEFIVPGTRLDLKRTVA
[15]
  neutralization IC50: 10 µg/mL
[16]
  neutralization IC50: 4.7 µg/mL
[17]
  neutralization IC50: 0.05 µg/mL
[18]
  neutralization IC50: 0.07 µg/mL
[19]
  neutralization IC50: 13 µg/mL
[20]
  neutralization IC50: 0.1 µg/mL

B6: 3BNC117 IgG (antibody, V domains shown)
VH: B5 VH with H3Q, S5L, K28N, S30R, H32Y, Q73H, Y81F, V90L, I97V, F107Y
VL: B5 VL with R14S, A56S, V79I, I90V
[15]
  neutralization IC50: 16 µg/mL
[16]
  neutralization IC50: 11 µg/mL
[17]
  neutralization IC50: 0.04 µg/mL
[18]
  neutralization IC50: 0.6 µg/mL
[19]
  neutralization IC50: 6.5 µg/mL
[20]
  neutralization IC50: 0.07 µg/mL
